# According to the supplement of paper PMC10201428:
# ± gives the standard deviation of the averaged measurements.
# B1: library; a variant is named by its letters at N, in order (parent)
# chain: ACATTTGTTGATACAACCATAAAATGATAATTACACCCATAAATTGATAATTATCACACCCANNNNNNNNNNNNNNCTCTGATCATAGTCAGACCAACATTGCTACGACCCGTATTCGCACCGACAC
# Key:
# [1] = variants of: B1; assay: relative integration efficiency (T-RL orientation) vs wild-type transposon end (log2 (normalized fold change)); transposon end mutated: right end (5 bp flank + 75 bp right end); higher = more efficient transposition; settings: with VchCAST RNA-guided transposition machinery (E. coli BL21(DE3) host, lacZ target)
# Outline: (§1)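 Barcoded pools of 1549 left-end or 1849 right-end transposon variants were cloned into a pUC57 mini-transposon donor. Each pool was co-transformed with a T7-driven effector plasmid (CRISPR array, tniQ-cas8-cas7-cas6, tnsA-tnsB-tnsC) into E. coli BL21(DE3) and plated with 0.1 mM IPTG at 37°C for 18 h. Input plasmids and genomic integration junctions were PCR-amplified and Illumina-sequenced, with two biological output replicates and four wild-type barcodes as reference. Relative integration efficiency is output/input barcode abundance fold change, normalised to wild-type barcodes and log-transformed.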
# [2] = variants of: B1; assay: relative integration efficiency (T-LR orientation) vs wild-type transposon end (log2 (normalized fold change)); transposon end mutated: right end (5 bp flank + 75 bp right end); higher = more efficient transposition; settings: with VchCAST RNA-guided transposition machinery (E. coli BL21(DE3) host, lacZ target)
# Outline: as §1
Variant,relative integration efficiency (log2) [1],relative integration efficiency (log2) [2]
ATTATTGATATTGC A62T,-0.325 ± 0.075,1.957 ± 0.011
ATTTAACTATAACG T8G,-6.07 ± 0.37,-5.36 ± 1.4
ATTTAACTATAACG T8A,-1.56 ± 0.29,0.918 ± 0.079
ATTTAACTATAACG T8C,-1.8 ± 0.42,-0.0325 ± 0.43
GCCATTGATATTGC A62C,-0.86 ± 0.27,2.47 ± 0.15
TAAGTTGATATTGC,-0.0544 ± 0.061,0.2 ± 0.074
ATTTAACTATAACG A27G,-1.43 ± 0.34,2.14 ± 0.29
ATTTAACTATAACG A27T,-1.93 ± 0.43,1.735 ± 0.0049
ATTTAACTATAACG A27C,-1.49 ± 0.28,1.82 ± 0.022
TACCTTGAAATTGC C59A,-1.62 ± 0.24,1.94 ± 0.21
ATTTAACTATAACG A22G,-1.42 ± 0.27,1.36 ± 0.45
ATTTAACTATAACG A22T,-0.696 ± 0.12,2.5 ± 0.18
ATTTAACTATAACG A22C,-1.71 ± 0.34,1.21 ± 0.057
ATTTAACTATAACG,-0.618 ± 0.17,2.52 ± 0.22
ATTTAACTATAACG T12A,-0.998 ± 0.097,2.03 ± 0.032
ATTTAACTATAACG T12G,-0.699 ± 0.2,1.76 ± 0.15
ATTTAACTATAACG G26T,-1.75 ± 0.32,2.24 ± 0.073
ATTTAACTATAACG G26C,-2.84 ± 0.47,1.17 ± 0.16
ATTTAACTATAACG G26A,-1.27 ± 0.28,2.69 ± 0.084
ATTTAACTATAACG T32A,-1.5 ± 0.28,2.13 ± 0.036
ATTTAACTATAACG T32G,-1.87 ± 0.28,2.2 ± 0.18
ATTTAACTATAACG A21T,-0.978 ± 0.093,2 ± 0.062
ATTTAACTATAACG A21C,-1.05 ± 0.21,1.892 ± 0.013

Variant,relative integration efficiency (log2) [1],relative integration efficiency (log2) [2]
ATTTAACTATAACG A50T,-1.29 ± 0.33,2.34 ± 0.11
ATTTAACTATAACG A50G,-1.62 ± 0.3,2.18 ± 0.28
ATTTAACTATAACG A50C,-1.36 ± 0.36,2.44 ± 0.1
TAAATTGTAATTGC,-0.121 ± 0.11,1.88 ± 0.1
ATTTAACTATAACG C38G,-0.843 ± 0.15,2.06 ± 0.035
ATTTAACTATAACG C38A,-1.04 ± 0.17,2.02 ± 0.11
ATTTAACTATAACG C38T,-0.901 ± 0.15,2.05 ± 0.13
TAAATTGTATATGC,-0.247 ± 0.1,0.948 ± 0.27
TAGATTGATATTGC,-0.557 ± 0.12,1.925 ± 0.0098
TCAATTGATATTGC,0.124 ± 0.1,2.16 ± 0.12
TATATTGATATCTC C59A,-0.231 ± 0.072,-0.123 ± 0.17
TACCTTGATATTGC,1.35 ± 0.074,3.9016 ± 0.0014
TAAATTGATATTGG C77G,-0.0309 ± 0.041,-0.0151 ± 0.56
TAATAACATATTGC,-0.969 ± 0.16,2.203 ± 0.0027
TAAATTGCGATTGC,-0.463 ± 0.06,1.51 ± 0.028
TAACGGTATATTGC,-0.559 ± 0.17,2.2 ± 0.3
TAAATTGATTAACC,-0.157 ± 0.13,1.35 ± 0.077
ATTTAACTATAACG T6G,-6.3 ± 0.14,-5.38 ± 0.28
ATTTAACTATAACG T6A,-6.98 ± 0.9,-4.12 ± 0.43
ATTTAACTATAACG T40C,-1.72 ± 0.32,1.196 ± 0.0054
ATTTAACTATAACG T40A,-1.01 ± 0.19,1.82 ± 0.13
ATTTAACTATAACG T40G,-2.18 ± 0.11,0.496 ± 0.47
